The text below walks through data of patent publication WO2001096599A2.

For the assay, the target named is recombinant ED-B protein (UniProt P02751). Briefly: I-125 labelled antibody on a small column of ED-B sepharose, elution with TEA pH 11.
UniProt P02751, sequence (P02751 1266-1356 limits assumed): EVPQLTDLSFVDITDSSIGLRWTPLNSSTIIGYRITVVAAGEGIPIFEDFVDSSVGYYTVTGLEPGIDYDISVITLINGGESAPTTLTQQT

For the substance “L19, human recombinant antibody directed against the Extra Domain B”, the immuno-reactivity (% of labeled material that bound to the ED-B sepharose column and was eluted) is 85 to 95%.
